Assay: soluble on expression in E. coli; label from the status in PepcDB or PDB records

Soluble on expression in E. coli, not soluble:
MAHHHHHHMCVPFKDQGQWIRQVALQVEEVAPSERGTDRPAAATPRHHMSVGVVDYYSKCGRICETVAVLCEEWMDSGYMDGFSSRLVKEANAGRSISDAPHRDAVFDSFCAPSPHCKKHAIFVRELDLALTTDTELRASIDADRPQEIETEEREMETMLHRLTREQGQSADVFSRDEIRRMKEAFVTGNKEDLQAVDPTAFDLTDDEFSTLKDYMHGEERKQQQQQRQRRPSAPSDADDL
PMVALVGARNASSLGLRMARKLAAALGEAGYVVVSGLARGIDAEAHAAALGQGTVAVQAGGVDVIYPAENAGLAAEIAARGCRISEQPMGLVPQARHFPLRNRIVSGLARAVVVVEAAARSGSLITAREALDQGREVLAVPGHPFDPRAAGGNQLIREGATLVRHAADVIEAIGTAHPA
MRFVYLSDLDNNQKNFYKEADRQSALLSMLIEKDIDFIGAGANFYQVGSKKDWSQFPLFADSLLHRSNSLISLQWMEKVEEKDIDEHFQQIHKNYPLAKLYTVPKDQPKTYGYVMKNHEPIYIATDIYPRDEKNTPLIGFYSSRERFNLVVEEFLTTGRPSVSDKIRLLQDSLDQSAQKTGMLVYHPVFTSDKTALKGVMVGVVRITSYFDRLVNSTSLGEELVVRIIDTGFDAGDDPIMYQSSTWNNFKGVDYTTSVKIENRLWKIEYKSDNKLNEYQRLTLEHHHHHH
KVILKEDAEMLDEVVVTGYGMSQKRSLMTNSISKLDDKVLQNAAMSNAAQSLQGTVSGLRVTNTSGKPGSSPNIVLRGGASINKNLEGPLVVVDGLVRSMDDINPSDIESIQVLKDAASTAIYGARANNGVILVTTKKGVEGR
MGSDKIHHHHHHMSERPTLHVVSLSGGKDSTATLCVALEQHGSENVRAVMADTGNEDEQNLEYALDYLPRALGIPVDVVRADFTDEFATKRANLARIAAGEPESAVYGKREFMYRWTPEAAARALEVLHPTGIPFLDLCLVRGGFPSRKRQFCTQYLKTEQLVGYALREIDRGYAVWSWQGVRIDESDSRRERLQGTGACVKAFEVVGGGLFNYRPILRWSAADVFEAHAAAGIRPNPLYRQGMSRVGCMPCINAGKLELREIARRFPEHVERIAEWERLVSEVCRPGSPVSFFHQGTTGHTGQASTIWKVVDWSKTSRGGRQYDLLADAEPATACSSAYGLCE
MNIPMYIVDAFTDRPFAGNPAAVCLLPQPVGDEWMQRVAAEMNLSETAFLVPHEGGYRLRWFTPKAEVDLCGHATLASAHVLWERGERRADEAIAFFTNSGVLTAINNDGWIRLDFPNETPVRVESPPAALVGALPAEPLFIGRNRFDYLVEIGSEQEVRRLTPDFRLLQEVDARGIIVTSRSAAEEMDFVSRAFFPALGVPEDPVTGSAHCCLGPYWADKLGKTTLVGYQASARGGIVRVMVSGERVQLEGKAVTVLKGDLAAEAAFGLQPI
MHGADIKAIVFDLDGTLYEETEHFDYYAERVAKRLREADRRRFWDDYRAVLADCHPLRIGSMYDAKEDLIVWLEEGAVRKAFRWSGEPLTKREIETVYKKPVAVDLDRFFSIGDLWWVSSSIGRHYGLTNEDTYAAFLETREWMMGPEFKMNGAPGLAETLVELHEKAALVLMTNSPEPDSEAILWKLRLADVFHHKIFQAAKPMKTAAHLEAIRARFGVDYRQMLCVGDNIGNDIAPARRLGCRTMLVDTYGLAKQGVADFIVASTSACVPVLRRLL
VKKIGILVLITALLAGIIPKSALAEEPKFNYVDAFAKSILFYEANWCGPDAGNNRIKWRGPCHIEDGKDVGLDLTGGFHDCGDHVKFGLPQCASASTLAWAYHEFSDVFIEKGQDEYMLNILKHFCDYFMKCYPEKNKFYYQVGDGDVDHQYWGPPELQSYDRPTYYVATPENPGSDVAGDTAAALALMYLNYKDRDLEYAEKCLAYAKDIYEFGMTYRGNSKGQSYYLPRDYLDELMWGSLWLYVATGEQKYMDNLEKLMVEKRIGDEAGNSFNDNWTQCWDYVLTGVFIKLATLTDKPLYKQIAEDHLDYWQNRIKSTPGGLKYLDSWGVCKYPAAESMVQLVYYKYTGDKRCLDFAKSQIDYILGDNPKKMSYVVGFGDNYPKFPHHRAASGRLEGPPADETKNDPQRHILYGALVGGADINDEYYDDIDKYVYSETGLDYNAGLVGALAGMSKYFGQGQMPEDTPGIEGEPPVYYADAKIYEENESGITVDLNMYNIVTSPPQYESDLSCRYFVDLSEYAGENIDMSKFVTKVYYSPAGATISELKPYDKEKNIYYVEISFPNPVYARTYVQFCIYYYENKLWDSSNDFSYQGIGDTYKTLENIPIYKNGVLVAGKEPSGAGPVEPTPPPKNYVYGDVNGDGKVNSTDCSIVKRYLLKNIEDFPYEYGKEAGDVNGDGKVNSTDYSLLKRFVLRNIDKFPVEQ
MGHHHHHHSHMATLIYVDKEIGEPGTRVAAKDVLKLESRPSIKALDGISQVLTPRFGKTYDAPSALPKATRKALGTVNRATEKSVKTNGPRKQKQPSFSAKKMTEKTVKTKSSVPASDDAYPEIEKFFPFNLLDFESFDLPEERQIAHLPLSGVPLMILDEEGELEKLFQLGPPSPVKMPSPPWECNLFAVSFKHSVDPGC
SLFAKATRNFLREVDADGDLIAVSNLNDSDKLQLLSLVTKKKRFWCWQRPKYQFLSLTLGDVLIEDQFPSPVVVESDFVKYEGKFANHVSGTLETALGKVKLNLGGSSRVESQSSFGTLRKQEVDLQQLIRDSAERTINLRNPVLQQVLEGRNEVLCVLTQKITTMQKCVISEHMQVEEKCGGIVGIQTKTVQVSATEDGNVTKDSNVVLEIPAATTIAYGVIELYVKLDGQFEFCLLRGKQGGFENKKRIDSVYLDPLVFREFAFIDMPDAAHGISSQDGPLSVLKQATLLLERNFHPFAELPEPQQTALSDIFQAVLFDDELLMVLEPVCDDLVSGLSPTVAVLGELKPRQQQDLVAFLQLVGCSLQGGCPGPEDAGSKQLFMTAYFLVSALAEMPDSAAALLGTCCKLQIIPTLCHLLRALSDDGVSDLEDPTLTPLKDTERFGIVQRLFASADISLERLKSSVKAVILKDSKVFPLLLCITLNGLCALGREHSEG
GPGSMRTCASTLSHLCAQGPLRGSMHVTLHALVRFCAHVASSLRSGQATLHPSLPLRFSHPLRLPSARFSHSTGVLSLALPVMQHTHIHTLTHTYSSIYRRFTARLRLSDSTCYTQGSTHTHTQSICFSIHSPLSLSLSETSALLGAPSSSSFSATSPAYRVRTASSCNRLPDGHKHFRKYIYIYIYIYWALSRISLGASADLPWNVRIHRVRMTATEYQKLIGERRLSPEEEENLVQRLYFRQMKLTEQREEERRAILERTRAQMQKHISKDEEGRLVSRMYDQQVERFANSKAERDRKLEEEMHKNDKKMDSSEIDDQVRRIYEEELKRSQARREELYSRYMPTAEAKKIGKKELKGCVERLSHVDWEKRDEELFKKYVYPYDPKTTKISRDDEQAMANRLSTTKGAG
MGSDKIHHHHHHDGKFTLGAGVGVVEHPYKQYDADVYPVPVISYESENFWFHGLGGGYYLWNDTNDKLSITAYWSPMYFKPGDSDSEQMRRLDKRKSTVMAGLSYVHNTPYGFLRTTIAGDTLDNSNGINWDLAWLYRYTNGNLTLTPGIGVEWNSDNQNEYYYGVSRHESRRSGMRSYDPDSSWNPYLELSANYRFLGDWSVYGVARYTRLSDEITDSPMVDKSWSGLISTGITYTF

Soluble on expression in E. coli, soluble:
KETCSTGLYTHSGECCKACNLGEGVAQPCGANQTVCEPCLDSVTFSDVVSATEPCKPCTECLGLQSMSAPCVEADDAVCRCAYGYYQDEETGHCEACSVCEVGSGLVFSCQDKQNTVCEECPEGTYSDEANHVDPCLPCTVCEDTERQLRECTPWADAECEHHHHHH
SAMKPTAGPTTNADLTSAPPHDIFISHAWEDKADFVEALAHTLRAAGAEVWYDDFSLRPGDSLRRSIDKGLGSSRFGIVVLSTHFFKKEWPQKELDGLFQLESSGRSRILPIWHKVSKDEVASFSPTMADKLAFNTSTKSVDEIVADLMAIIRD
AEPQPPSGGLTDEAALSCCSDADPSTKDFLLQETMLRVKDPKKSLDFYTRVLGMTLIQKCDFPIMKFSLYFLAYEDKNDIPKEKDEKIAWALSRKATLELTHNWGTEDDETQSYHNGNSDPRGFGHIGIAVPDVYSACKRFEELGVKFVKKPDDGKMKGLAFIQDPDGYWIQILNPNKMATLM
MSLSATSNSNWDRRSVLRAAAGLAALGPLAACGSNTGRSGGGSSGESLVQYFHAYGEAGTEQAIRRYAKAYDKAAVTTQWITGTNFESKLFSALLTDNAPDVFEFHPQLQMIKSGQVAALDDIIDPVKDDFNPADITSHTVDGKVYGVRMIDDPQFFFYRKSLLEKAGTGVPQTLDELAEAAAKLTTDKVKGLFLGNNMVAPNYALVWAAGADQLNAKNEIAYHTDEVAAALKVYRKMFTSGHLLLDAPADYWDPSALVQGLTAIQWCGMWAMPVMQQALGDDLGIFPFPSAASGAKPAVYNGGWSMFVNAKGKNVDLAKEYVKWLWIDQKKYQEDWALSYGFHIPPRTSTAESATKLKSGLPAEGVKLFTDYGRFDNVSWTQAMISALEGVIADAVRKGKDPEAALDTADKKVNRELKNLFGEGHHHHHH
MTQTQPVTPTPPASFQTQHDPRTRLGATPLPGGAGTRFRLWTSTARTVAVRVNGTEHVMTSLGGGIYELELPVGPGARYLFVLDGVPTPDPYARFLPDGVHGEAEVVDFGTFDWTDADWHGIKLADCVFYEVHVGTFTPEGTYRAAAEKLPYLKELGVTAIQVMPLAAFDGQRGWGYDGAAFYAPYAPYGRPEDLMALVDAAHRLGLGVFLDVVYNHFGPSGNYLSSYAPSYFTDRFSSAWGMGLDYAEPHMRRYVTGNARMWLRDYHFDGLRLDATPYMTDDSETHILTELAQEIHELGGTHLLLAEDHRNLPDLVTVNHLDGIWTDDFHHETRVTLTGEQEGYYAGYRGGAEALAYTIRRGWRYEGQFWAVKGEEHERGHPSDALEAPNFVYCIQNHDQIGNRPLGERLHQSDGVTLHEYRGAAALLLTLPMTPLLFQGQEWAASTPFQFFSDHAGELGQAVSEGRKKEFGGFSGFSGEDVPDPQAEQTFLNSKLNWAEREGGEHARTLRLYRDLLRLRREDPVLHNRQRENLTTGHDGDVLWVRTVTGAGERVLLWNLGQDTRAVAEVKLPFTVPRRLLLHTEGREDLTLGAGEAVLVG
MKFPKDFMIGYSSSPFQFEAGIPGSEDPNSDWWVWVHDPENTAAGLVSGDFPENGPGYWNLNQNDHDLAEKLGVNTIRVGVEWSRIFPKPTFNVKVPVERDENGSIVHVDVDDKAVERLDELANKEAVNHYVEMYKDWVERGRKLILNLYHWPLPLWLHNPIMVRRMGPDRAPSGWLNEESVVEFAKYAAYIAWKMGELPVMWSTMNEPNVVYEQGYMFVKGGFPPGYLSLEAADKARRNMIQAHARAYDNIKRFSKKPVGLIYAFQWFELLEGPAEVFDKFKSSKLYYFTDIVSKGSSIINVEYRRDLANRLDWLGVNYYSRLVYKIVDDKPIILHGYGFLCTPGGISPAENPCSDFGWEVYPEGLYLLLKELYNRYGVDLIVTENGVSDSRDALRPAYLVSHVYSVWKAANEGIPVKGYLHWSLTDNYEWAQGFRQKFGLVMVDFKTKKRYLRPSALVFREIATHNGIPDELQHLTLIQ
MSLRPPQTLSRGWGDDITWVQTYEEGLFYAQKSKKPLMVIHHLEDCQYSQALKKVFAQNEEIQEMAQNKFIMLNLMHETTDKNLSPDGQYVPRIMFVDPSLTVRADIAGRYSNRLYTYEPRDLPLLIENMKKALRLIQSELEGHHHHHH
